Test results reported in the supplement of paper PMC12764529.
± gives the half width of the 95% confidence interval.

How the values were obtained:
[1] = folding stability dG unfold from trypsin proteolysis; higher = more stable
In short: (§1)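 Unfolding free energy was derived, per protease or combined, by relating Bayesian-fitted K50 values from sequencing counts to a sequence-predicted unfolded-state K50 and a shared folded-state K50. The underlying digests exposed cysteine-free mini-proteins under 80 residues, in a PA-tagged cDNA display construct, to trypsin and chymotrypsin at 11 threefold-diluted concentrations and to a no-protease condition. A filter kept only designs with AlphaFold2 dimer inter-PAE above 15.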

[2] = folding stability dG unfold (combined trypsin and chymotrypsin); higher = more stable
In short: as §1

[3] = folding stability dG unfold from chymotrypsin proteolysis; higher = more stable
In short: as §1

| Sequence | folding stability dG unfold [1] [kJ/mol] | folding stability dG unfold [2] [kJ/mol] | folding stability dG unfold [3] [kJ/mol] |
| --- | --- | --- | --- |
| SEAKTMSPEELKEFIEEYIEEERKKNPGKPVRIAIEDLKEKFPGFSPEELKKLLGLSEEELENGAIEIEPSA [r9_525_TrMRF] | 7.58 ± 0.364 | 9.3 ± 1 | 9.94 ± 0.46 |
| SAGGSAWEFVKEIAKELQEKHPGYQVNVDVEPQRNPENDRRYIRIWIHVQDKNGEIRRTWEIMIPFSAGGSA [r15_1048_TrROS] | 13.5 ± 0.222 | 14.4 ± 0.502 | 14.48 ± 0.0753 |
| SAGGGSFINISKKEIAEAISKLIGKDYPLEDVKVSVTTLPENKTIINVEIKLPNTTETLYIPILFDVSAGGS [r16_42_TrMRF] | 8.73 ± 0.393 | 8.01 ± 0.285 | 7.12 ± 0.0753 |
| SAGGSAGGSAGGKKTIVIEINGKKYTITRIEFDKDTKKITIEIEFNGKKLKIEIELPKNLSAGGSAGGSAGG [r7_477_TrROS_Hall] | 9.07 ± 0.326 | 13 ± 1.13 | 13.8 ± 0.669 |
| SAGGSAGGSAGGGVTLPTGDIVVPVEYTTTVPVLTYNPTLGVSYFFTLTVTTSSTVYVGLSAGGSAGGSAGG [r7_374_JUSTAS] | 11.3 ± 0.238 | 14.1 ± 0.343 | 16.18 ± 0.109 |
| PPTSPEFRKALENIKKVDIEIEPYPNDGMVRMSIELKFPDKPVEIDIHYQYDPDGKINGMWARLDGKWIPIS [r1_274_TrROS] | 4.6 ± 0.381 | 7.73 ± 0.837 | 8.34 ± 0.331 |
| SAGGSAGGSAGDKPITIFIPGTPDDIKDYIEDEGFKIKDIEIQYHKNKDGKYWVMVTIRVSAGGSAGGSAGG [r11_632_TrROS] | 12 ± 0.753 | 13.3 ± 1.05 | 13.9 ± 0.544 |
| SAGGSAGGSAMTLRVKITLPDGRELELEIEAETEEEALAALKELIKKLFPEVKEVKIEVEPESAGGSAGGSA [r18_434_TrROS_Hall] | 16.3 ± 1.26 | 20.3 ± 1.67 | 20.3 ± 1.59 |
| SAGGGRARLIELKEARFNPETGVLELTALVEFPEIGTLVVFRIRVPLEGEPRIEIEVEVYPIKPGEASAGGS [r16_207_TrMRF] | 13.3 ± 0.293 | 16.7 ± 0.381 | 18 ± 0.234 |
| SAGGSAGGSAAPLYELEILSVDLDPDNPTVYVLARIPGTSNYVLITFPPNGDVYAYASPLPSAGGSAGGSAG [r3_294_TrMRF] | 8.17 ± 0.251 | 9.43 ± 0.711 | 9.91 ± 0.251 |
| SAGGSAGGSAGMVIVDPERGYIYIPFPEDIEPEEFIEANKIPEFDIEVLEIGENIPVIKLSAGGSAGGSAGG [r17_323_TrMRF] | 1.49 ± 0.197 | 0.873 ± 0.402 | -0.203 ± 0.502 |
| SAGGKSVKVSLPKEALKKAKENEKVVITLPDGTKREAILVRGGDSVPVFVVNPDNPEEAEYVGEATVGSAGG [r13_745_TrMRF] | -2.11 ± 0.669 | -0.0955 ± 0.377 | 0.559 ± 0.176 |
| SEKIKELIKKLAEELNLKIVKIEKKEDGKIIIEFENGIKIEIEIDPEKKNKIKIKIEKTKNGKLKITIEPSA [r9_809_TrROS_Hall] | 6.98 ± 0.46 | 9.38 ± 0.502 | 11.1 ± 0.586 |
| TPLTTSTTTVPPSEIATPVTFNAPLSPDTSVTITTYDSATGTTSPVFSTTSASVTLTDLPNVSTATVVVVSS [r1_224_JUSTAS] | 2.94 ± 0.0753 | 1.92 ± 0.285 | -1.07 ± 0.962 |
| SAGGGDLEVELVEEREFTFPDGLRRRLLVVRFPDGFLAIPVYVRPPGGGWRLLARFVLRIGPPRPEEGSAGG [r13_494_TrMRF] | 13.5 ± 0.226 | 16 ± 0.335 | 17.9 ± 0.18 |
| SAGGMVTVDTDPTEDGTLRVTVTVPRPDGPALTLTLDFPPEAGSLAVVLARADEALAAEMARRGLALSAGGS [r8_464_JUSTAS] | -0.0301 ± 1.13 | 6.02 ± 0.92 | 8.16 ± 0.586 |
| SAGGSAGGSAGGPKLVLKIKTEIKIEKKLEFDPETGELTEEIEIEIKIEIELEPLPEGLSAGGSAGGSAGGS [r10_376_TrROS_Hall] | 5.52 ± 1.05 | 11.9 ± 4.02 | 13.6 ± 1.46 |
| SMVVIEFETKKPKEQAEKAVEKAKKEIPELEEVLEIEVEEFPDFLKVKIVLKGGKITPEDLEKLKEFLEKSA [r9_195_TrMRF] | 11.2 ± 1.13 | 11 ± 1.13 | 10.1 ± 0.297 |
| SAGGSAGGSPNTVPIPIRVEWYDPKDGEPKDEHPFNINFKTEEEAEDIIDNIAPDHPGMKIEISAGGSAGGS [r12_1043_TrROS] | 0.974 ± 0.402 | 0.0557 ± 0.586 | -1.35 ± 0.46 |
| SAGGSAGGSMKTITVTFSSEEEAKKAAEEILKKEGFDEKIKEVTLTYSKEGNVLTGTVTVKTPSAGGSAGGS [r12_7_JUSTAS] | 1.88 ± 0.176 | 3.96 ± 0.372 | 5.04 ± 0.192 |
| SAGGSEAEIVSVEFDEETGTISVLVRNSDGSLYRAEIRFERLPDGSLLVTIKVTLPDGKELTFVFPSAGGSA [r2_488_TrROS_Hall] | 16.5 ± 0.46 | 24.2 ± 0.795 | 24.1 ± 0.356 |

| Sequence | folding stability dG unfold [1] [kJ/mol] | folding stability dG unfold [2] [kJ/mol] | folding stability dG unfold [3] [kJ/mol] |
| --- | --- | --- | --- |
| SAGGSASMTTKRPVSPELRAKVEAAAAAGDPAITVTLPVTLPDGRTVTLTVTKDPTADTFTATVVSSAGGSA [r15_700_JUSTAS] | 0.345 ± 1.38 | 0.925 ± 0.92 | 1.54 ± 1.26 |
| SAGGSAGGKITPEMEKLKKEIADAIKKAFPNKDLKIEVIKIEKTKDGSVIIDIKIGDKIIRIKASAGGSAGG [r6_494_TrMRF] | 10.8 ± 0.586 | 9.05 ± 0.795 | 7.73 ± 0.502 |
| SAEMKIEKIEVKPLEEEPELVEITIKVKDPEKLKEALEKAGFTVEEVDEEEGKLTITMSREQLEKLLKASAG [r14_777_TrROS_Hall] | 7.76 ± 0.418 | 8 ± 1.3 | 7.05 ± 0.586 |
| SAGGKKKKTIVIVLEVSEEEAEKIIEALKKELEKKGFKIEKIEVRKVPDKPMVIVTIKLENGEELTFISAGG [r13_421_TrROS_Hall] | 8.23 ± 0.218 | 10.2 ± 0.305 | 11.1 ± 0.23 |
| SAGGSAGGMEEIVLPIPEEVAKELIASGTVTKTQTEGNRTILTKTPPSGGSTKITVVLPPSYPSSAGGSAGG [r6_654_JUSTAS] | 5.02 ± 0.397 | 5.63 ± 0.711 | 5.19 ± 0.418 |
| SAGGSAGGSASKDDKIVKVKVFTIKLKPNLEGLPKKVRELLEKLGIKEIKITFVSVFNPEDFSAGGSAGGSA [r18_127_TrMRF] | 13.5 ± 0.837 | 16.4 ± 0.711 | 18.2 ± 0.586 |
| GEVVERLKLPDLELVEVRTTTEGDTTFVYVKLKRPDSYYVVKLTVTPATGEVTVTEEKKVSPNETLEEVLAS [r1_383_JUSTAS] | 6.95 ± 0.502 | 9.86 ± 0.879 | 11.5 ± 0.502 |
| SAGGLKIPVGSAEDALKAFEAIEEPVLVRTKDRKFVRELKLEDIKELVEKGVEFEFVLPSELPEEERKESAG [r5_677_TrMRF] | 2.4 ± 0.293 | 2.37 ± 1.63 | 2.4 ± 0.879 |
| SAGGRGEGTMNDPEGGRVYKSEYDPGDGQAEIEPKPVPPVPPIDAEELAEELEQKNGLPNDDVEDMLGSAGG [r13_824_TrROS] | -1.4 ± 0.351 | -1.29 ± 1.13 | -0.872 ± 1.84 |
| SAGGSAPPFYIAINPDKPKSIHIMPPGSPDMRDDDGSKVIPFRTEEEFLKLIQEIKKKGVDKIHIYSAGGSA [r15_1004_TrROS] | -0.258 ± 0.753 | 1.73 ± 1 | 3.11 ± 1 |
| SAGGSAGPSVTVDVTFHPGEGTVDVTVTTEGEVVYGKGTFLNPSTVLVEVYFPGSGKVATLTLPVTSAGGSA [r15_837_TrMRF] | 7.81 ± 0.276 | 7.24 ± 0.218 | 6.75 ± 0.293 |
| SAMSPEEIRARARALLEEKYPDKPYTLLSVEVDPSTGRVTVTWESPTPEKTTVTTPLTVTFGADGSLRESAG [r14_183_JUSTAS] | 8.484 ± 0.0502 | 8.47 ± 0.121 | 8.254 ± 0.0711 |
| SAMKYLVEVTADLGGPSVRYELDAESIEEAIEKVKEKLKPLFPDAPLKNITLTFHDPSSDETTTVNIVESAG [r14_54_JUSTAS] | 14.1 ± 0.28 | 14.6 ± 0.259 | 14.81 ± 0.13 |
| SAGGSAGGSSVTRLIYLEDGTVLVVKLTPKPLVLPDGKPAFVLGFEVVEIRPVKDPKEALKALSAGGSAGGS [r12_915_TrMRF] | 7.59 ± 0.163 | 6.75 ± 0.297 | 5.45 ± 0.339 |
| MEPPPVVVLEIEIEVPAEDEELRNMTAEELAARLAEELEALPGLKVVSVEVVEVEERPDGTLRVRIRVTIES [r1_484_TrROS_Hall] | 15.5 ± 1.97 | 15 ± 3.31 | 9.69 ± 0.586 |
| SAGGSAGGSAGGSSKNRPLVIIDYPFYTSNPDYIVRATFINYLDENNNITEVKVEVLKASAGGSAGGSAGGS [r4_75_TrMRF] | 9.63 ± 0.92 | 10.8 ± 1.13 | 13.2 ± 0.397 |
| SAGGSAGGSAGNLKVVDISIWRTDDMRYIMFKLEGDGLTIMIWVPPKEPGKIQIMIFPLDSAGGSAGGSAGG [r11_1046_TrROS] | 14.6 ± 0.962 | 18.2 ± 0.669 | 18.9 ± 0.418 |
| SAGGMPVTTTPRTVELPDRRVEVIDRTFPNGPPRTTVVVRDPAGNLVATREFTGPEWEEWLRAEGALLSAGG [r19_90_JUSTAS] | -2.54 ± 0.711 | 2.96 ± 0.201 | 4.45 ± 0.146 |
| SAGGMEPIEIPAKVKITHNGKEQEYPLENVTIWPMPDGMYMIYNPDKGEMFFINPKNGRLMRIEIDDSAGGS [r16_721_TrROS] | 3.93 ± 0.385 | 8.33 ± 0.795 | 10.5 ± 0.628 |
| SAGQPGKPIRKYTFDLPDDDKITVEVYMYPDGNMMIKIEDNNGKERNIMIPANDLQNMPIEDLVKWLRSAGG [r19_47_TrROS] | 11.4 ± 0.502 | 13.9 ± 1.51 | 14.9 ± 0.259 |
| SAGEWYRMSITFDLDPDNRDQLEKIAEKIREKDGFDKIEPVEHDPSNGRVTINVYMPPEAQDKIQEALRSAG [r5_193_TrROS] | 3.94 ± 0.418 | 5.32 ± 0.753 | 5.22 ± 0.628 |
